Measurements reported in US20250099548A1, “PHARMACEUTICAL COMPOSITION FOR PREVENTING OR TREATING DEGENERATIVE BRAIN DISEASES, CONTAINING GLUCAGON-LIKE PEPTIDE-1 AND INTERLEUKIN-1 RECEPTOR ANTAGONIST” (GI INNOVATION, INC., priority 2022, published 2025).

B1: GI210B1CN: fusion protein dimer comprising GLP-1 and an Fc domain of IgG4; SEQ ID NO: 22 (protein)
chain: HGEGTFTSDVSSYLEEQAAKEFIAWLVKGGGGGGGSGGGGSGGGGSGGAESKYGPPCPPCPAPEAAGGPSVFLFPPKPKDQLMISRTPEVTCVVVDVSQEDPEVQFNWYVDGVEVHNAKTKPREEQFNSTYRVVSVLTVLHQDWLNGKEYKCKVSNKGLPSSIEKTISKAKGQPREPQVYTLPPSQEEMTKNQVSLTCLVKGFYPSDIAVEWESNGQPENNYKTTPPVLDSDGSFFLYSRLTVDKSRWQEGNVFSCSVLHEALHNHYTQKSLSLSLG
modifications: dimer; GLP-1-IgG4 Fc

How the values were obtained:
[1] = in vivo; cited from earlier work
Tg-APP/PS1 mice [2] = assay: Aβ plaque deposition in brain tissue, thioflavin S staining; format: in vivo, mouse; details: Example 2; GI210B1, GI210B1C1, GI210B1CN at 1.2, 0.7778, 1.1745 mg/kg intraperitoneal, 4 times for 2 weeks
Experimental: Accordingly, in order to confirm the effect of treating Alzheimer's disease by intraperitoneal administration of GI210B1, the Tg-APP/PS1 mice administered with GI210B1 (Tg+GI210B1) and the Tg-APP/PS1 mice (Tg+Veh), a control group, were sacrificed, and then the brain tissue was extracted, and Aβ plaques were stained using thioflavin S, and then the degree of Aβ plaque deposition in the parietal cortex, hippocampus, and piriform cortex regions was analyzed.
Specifically, for immunohistochemical analysis using thioflavin S staining, the brain was collected after perfusion for the mouse with 4% paraformaldehyde, and then the brain was further fixed with 4% paraformaldehyde overnight at 4° C. The brain tissue sections were prepared by cutting the fixed brain tissue to a thickness of […] using a vibratome. The prepared brain tissue sections were stained using thioflavin S by a known method. At that time, the stained image was analyzed using MetaMorph Microscopy Automation & Image Analysis software (Molecular device). The amount of plaque was quantified and expressed as the number of plaques per unit area and the sum of the plaque areas.
The Tg-APP/PS1 mice were prepared in the same manner as in Example 1.1 above. The test substance was prepared by diluting GI210B1, GI210B1C1, or GI210B1CN obtained in Preparation Example 1 to 3 in saline. Thereafter, the prepared test substances were each intraperitoneally administered to the 6.5-month-old Tg-APP/PS1 mice at a concentration of 1.2 mg/kg, 0.7778 mg/kg, and 1.1745 mg/kg a total of 4 times for 2 weeks (FIG. 23).
In the same manner as in Example 1.3 above, the mice were sacrificed, and then the brain tissue was extracted, and the degree of Aβ plaque deposition in the parietal cortex, hippocampus, and piriform cortex regions was analyzed using thioflavin S, which stains Aβ plaques.
The Tg-APP/PS1 mice were prepared in the same manner as in Example 1.1 above. The test substance was prepared by diluting GLP-1 (Peptron), GI210B1C1 obtained in Preparation Example 2 and GI212B2 obtained in Preparation Example 4, anakinra (Amgen, Kineret-inj), and the anti-IL-1 antibody (BioXcell, BE0246) in saline to concentrations of 0.0371 mg/kg, 1.1745 mg/kg, 1.8722 mg/kg, 0.2041 mg/kg, and 1.77 mg/kg, respectively. Thereafter, the prepared test substances were intraperitoneally administered to the 6.5-month-old Tg-APP/PS1 mice a total of 4 times for 2 weeks, as shown in Table 6 below (FIG. 30). […]
In the same manner as in Example 1.3 above, the mice from each group were sacrificed, and then the brain tissue was extracted, and the degree of Aβ plaque deposition in the parietal cortex, hippocampus, and piriform cortex regions was analyzed using thioflavin S, which stains Aβ plaques.

Tg-APP/PS1 mice [3] = assay: MAP-2 immunofluorescence staining of hippocampal CA1 region; format: in vivo, mouse; details: Example 2; GI210B1, GI210B1C1, GI210B1CN at 1.2, 0.7778, 1.1745 mg/kg intraperitoneal, 4 times for 2 weeks
Excerpt: Long-term memory is regulated at synapses between axons of neurons and dendrites of target neurons, and the microstructure of neurons is greatly influenced by the state of neuron health. Changes in the microstructure of dendrites of neurons are important for maintaining memory. The microstructure of the dendrites of such neurons can be observed as an image by staining with an anti-MAP-2 antibody (GeneTex, CatNo. GTX133109) located in the dendrites.
Therefore, in order to determine the mechanism of action of cognitive function improvement and memory recovery effects of GI210B1, the Tg-APP/PS1 mice administered with GI210B1 (Tg+GI210B1), the wild type mice (WT) as a normal group, and the Tg-APP/PS1 mice (Tg or Tg+Veh) as a control group were sacrificed, and then the brain tissue was extracted, and the microstructural status of the dendrites (dendritic process) of the hippocampus was analyzed.
In the same manner as in Example 1.4.1 above, the mice from each group were sacrificed, and then the brain tissue was extracted, and the microstructural status of the dendrites of the hippocampus was analyzed.

Molecule	biological half-life [1]	amount of plaque deposited in the brain (number of plaques per unit area and sum of plaque areas) (Tg-APP/PS1 mice [2])	expression level of MAP-2 in the CA1 region of the hippocampus (Tg-APP/PS1 mice [3])
wild type GLP-1: wild type glucagon-like peptide-1, cleaved and inactivated by DPP-4 in vivo; SEQ ID NO: 1	1-2 minutes		
B1		tended to be reduced	higher than that of the control group (Tg+Veh)
